Results reported in patent US20250320480A1, “Immunoglobulin Cleaving Enzyme” (priority 2021, published 2025).
Entries after “also recorded” stand apart in the source; their conditions may differ.

Tests used:
mouse IgG2a = mouse IgG2a (Mus musculus, UniProt P01863); assay: Immunoglobulin specificity on SDS-PAGE: mouse IgG2a; format: biochemical; details: 37° C.
Procedure: (§1) FIG. 3. Specificity of IdeSork2.0. IdeSork2.0 was mixed with different antibodies and incubated o/n at 37° C. before analysis on SDS-PAGE. The enzyme itself is noted with an arrow. […] Mouse IgG1, mouse IgG2b and human IgA were not affected by IdeSork2.0.
(§2) Various antibodies and antibody based therapeutics were incubated with Xork, IdeS, or IdeZ (1:40 ratio) for 1 hour at 37° C. in PBS, with substrate concentrations ranging between 2-5 mg/mL, before being analyzed on SDS-PAGE. For kinetic studies, a substrate level of 2-200 μM IVIG was used during 10 min at 37° C. before being analyzed on a UHPLC system.

mouse IgG1 = mouse IgG1 (Mus musculus, UniProt P01868); assay: Immunoglobulin specificity on SDS-PAGE: mouse IgG1; format: biochemical; details: 37° C., listed as IdeSork2.0
Procedure: as §1, §2

Trastuzumab = assay: Mechanism of action: time course on Trastuzumab, non-reduced SDS-PAGE; format: biochemical, human; details: 1:20, 0-60 minutes
Procedure: FIG. 6. IdeSork2.0 is acting upon IgG in a two-step mechanism. To investigate if IdeSork2.0 is hydrolyzing both heavy chains of IgG simultaneously, or acting on them individually, we incubated Trastuzumab with IdeSork2.0 (1:20) and incubated for 0-60 minutes before analyzing on a non-reduced SDS-PAGE.
IdeS is known to first hydrolyze one chain of the antibody, and upon hydrolysis thereof, have lower affinity to the second chain. As such many antibodies may be only partly hydrolyzed at the start of the reaction. IdeSORK2.0 also generates fragments with single chain cleavage, however a large proportion of these are quickly processed to full cleavage (FIG. 6).

cow IgG = assay: Immunoglobulin specificity on SDS-PAGE: cow IgG; format: biochemical
Procedure: as §2

[1] = tested on: denatured and reduced IgG; assay: Activity on denatured and reduced IgG; format: biochemical; details: urea-denatured and reduced IgG, E:S 1:10, 5 hours at 37° C.
Procedure: FIG. 17. Denatured IgG was incubated with IgG hydrolases to investigate the necessity of a conserved 3D structure of the substrate for the enzymes to exert their function.
IgG that had been urea-denatured and reduced was incubated with IgG-specific enzymes at an E: S ratio of 1:10, incubating for 5 hours at 37° C. before analysis on SDS-PAGE.

human IgG = assay: Immunoglobulin specificity on SDS-PAGE: human IgG and IgG Fc fusion proteins; format: biochemical; details: for Hydrolysis of human IgG and IgG Fc fusion proteins: incubated with different antibodies at 37° C., SDS-PAGE
Procedure: as §1, §2

rat IgG = assay: Immunoglobulin specificity on SDS-PAGE: rat IgG; format: biochemical; details: o/n at 37° C.
Procedure: (§3) FIG. 11. Specificity of IdeSork2.0. IdeSork2.0 was mixed with different antibodies and incubated o/n at 37° C. before analysis on SDS-PAGE.
as §2

mouse IgG2b = mouse IgG2b (Mus musculus, UniProt P01867); assay: Immunoglobulin specificity on SDS-PAGE: mouse IgG2b; format: biochemical; details: 37° C., listed as IdeSork2.0
Procedure: as §1, §2

dog IgG = assay: Immunoglobulin specificity on SDS-PAGE: dog IgG; format: biochemical; details: o/n at 37° C.
Procedure: as §3, §2

[2] = tested on: human IgG1 hinge/CH2 region; assay: Site of hydrolysis by IdeSORK2.0, LC-MS; format: biochemical; details: IgG1, IgG2, fusion proteins, LALA-mutated IgG
Procedure: FIG. 5. IdeSork2.0 hydrolyses the hinge of IgG at an identical site as IdeS. Commercial and non-commercial biologics were hydrolyzed with IdeSork2.0 and hydrolysis products were analyzed using LC-MS.
Several substrates (IgG1, IgG2, fusion proteins, LALA-mutated IgG) were subjected to hydrolysis by IdeSORK2.0 and the site of hydrolysis identified through LC-MS. […] This is the same site that is recognized by IdeS. The site of hydrolysis has been confirmed for etanercept, trastuzumab, cetuximab, as well as two non-commercial monoclonal antibodies.
Subunit fragments were denatured and reduced followed by reversed phase LC-MS analysis. Separation was achieved using a BioResolve RP mAb Polyphenol, 450 Å, 2.7 μm 2.1×100 mm, Waters (0.1% formic acid in water and 0.1% formic acid in 95% acetonitrile as mobile phases) and run on an Agilent 1260/1290 UHPLC system coupled to a Bruker Impact II QTOF mass spectrometer. The obtained data was evaluated in Bruker Compass DataAnalysis software using the MaxEnt algorithm for deconvolution and SNAP algorithm for determination of the monoisotopic molecular weights.

IgG = assay: Optimal conditions, Box-Behnken design (pH, NaCl, temperature); format: biochemical
Procedure: FIG. 7. IdeSork2.0 optimal conditions. The optimal buffer composition for IdeSork2.0 was determined using a Box-Behnken experimental design, measuring the impact of pH, NaCl and temperature. Output was measures as percentage hydrolysis of IgG.
The optimal conditions for IdeSORK2.0 were assessed using a Box-Behnken experimental design to assess multiple factors and their inter-dependence. […] The enzymatic reaction is mainly driven by the substrate concentration (high concentration favours the reaction), while the enzyme concentration is secondary. This can also be seen as a low percentage IgG not being readily hydrolyzed even after a pro-longed incubation (FIG. 9).
To better understand the optimal conditions needed for the enzyme to exert its activity, a Box-Behnken design was employed for the experiment. Addition of NaCl (0-400 mM), pH (5.5-8.5), [enzyme], [substrate], time, and temperature were parameters investigated. Unless otherwise noted, all experiments were conducted in TBS at an enzyme: substrate ratio of 1:20, for 1 hour at 37° C.

casein = assay: General protease activity, EnzChek protease assay; format: biochemical; details: casein substrate, FabULOUS 5 μg, FabRICATOR 10 μg, IdeSORK2.0 10 μg
Procedure: FIG. 2. General protease activity. General protease activity was measured with the EnzCHECK protease assay, using casein as a substrate.
General protease activity was determined using the EnzChek Protease Assay kit, according to manufacturer's instructions. As a positive control the general protease FabULOUS (SpeB, 5 μg) was used, and as a negative control the IgG-specific protease FabRICATOR (IdeS, 10 μg). IdeSORK2.0 was added to a total quantity of 10 μg.

Chain of mouse IgG2a (P01863 whole entry): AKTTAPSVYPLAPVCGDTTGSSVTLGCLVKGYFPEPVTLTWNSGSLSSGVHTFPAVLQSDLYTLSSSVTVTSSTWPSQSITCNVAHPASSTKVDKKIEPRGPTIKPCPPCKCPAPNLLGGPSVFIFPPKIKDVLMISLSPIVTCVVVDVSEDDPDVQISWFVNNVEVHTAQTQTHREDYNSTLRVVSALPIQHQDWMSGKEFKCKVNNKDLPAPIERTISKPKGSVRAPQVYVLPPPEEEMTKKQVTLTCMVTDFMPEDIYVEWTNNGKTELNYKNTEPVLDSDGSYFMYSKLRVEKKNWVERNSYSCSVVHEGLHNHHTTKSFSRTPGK
Chain of mouse IgG2b (P01867 1-335 isoform P01867-2): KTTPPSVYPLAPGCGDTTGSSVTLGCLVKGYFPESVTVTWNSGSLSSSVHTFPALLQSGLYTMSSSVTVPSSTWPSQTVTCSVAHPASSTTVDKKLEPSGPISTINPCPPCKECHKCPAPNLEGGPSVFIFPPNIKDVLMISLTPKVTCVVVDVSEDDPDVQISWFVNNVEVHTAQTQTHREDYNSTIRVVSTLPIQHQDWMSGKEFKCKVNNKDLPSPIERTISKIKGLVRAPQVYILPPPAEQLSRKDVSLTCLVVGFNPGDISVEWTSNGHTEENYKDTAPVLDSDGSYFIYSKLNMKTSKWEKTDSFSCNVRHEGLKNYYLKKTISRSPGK

B1: IdeSORK2.0: SEQ ID NO: 2 (N terminal 312 amino acids of IdeSORK) with added N terminal methionine and C-terminal His6; 319 amino acids (protein)
chain: MSKRKLLKKIEKKDTSSVLTQKKQTKTLWADGVQVDDKDFKPSTENFGTNYLAAEYGIGKGYYDINKKFDGTDDDLCSGVVAANQLHWWLDRNKDYIEKYRQQSKDNGVTIGNTDIFELNKLHDEDQSNFFDFIKKSFGNKFLQPERLLNMYINGYGYLTSQDKAKTSQPSPSKLNFFQKVFKNNLLTDKTPINDIDEFSSQTKNALQNHKVLAVSFASIKNRGLGHVVTVWGADFDENGKVVALYVTDSDDRSKNIGNAKLGMKKLRIEVSAQDSSTIKLTGFEDKNSGGSLRHLYSLSTGEQIWKKYFEETHHHHHH
modifications: (IdeSORK2.0) Protein of SEQ ID NO 2 engineered to include an additional N terminal methionine and a C-terminal protein purification tag - His6
Activity towards mouse IgG2a (mouse IgG2a): active
Activity towards mouse IgG2a (mouse IgG2a; listed as IdeSork2.0): could be hydrolyzed
Activity towards mouse IgG1 (mouse IgG1): not affected
Mechanism of IgG heavy chain hydrolysis (Trastuzumab): activity is mediated one chain at a time
Time course of IgG hydrolysis (Trastuzumab): Most IgG is hydrolyzed within the first few minutes
Mechanism of IgG heavy chain hydrolysis (Trastuzumab; listed as IdeSork2.0): two-step reaction
Activity on cow IgG (cow IgG): only showed activity against horse and guinea pig IgG
Activity against denatured and reduced IgG [1]: not active
Hydrolysis of monoclonal IgG4 (human IgG): can also hydrolyze
Hydrolysis of polyclonal IgG (e.g. IVIG) (human IgG): near complete hydrolysis
Preference between human IgG subclasses (human IgG; IgG1 versus IgG2): slight preference for IgG1 over IgG2
Effect of alterations of the hinge region (e.g. LALA-sequence) on activity (human IgG; human antibodies with altered hinge): did not affect the activity
Hydrolysis of human IgG and IgG Fc fusion proteins (human IgG): hydrolyzing all tested human IgGs and IgG Fc fusion proteins
Hydrolysis of human IgG and IgG Fc fusion proteins (human IgG; listed as IdeSork2.0): hydrolyzed
Activity on rat IgG (rat IgG): only showed activity against horse and guinea pig IgG; also recorded: no visible effect
Activity towards mouse IgG2b (mouse IgG2b): not affected
Activity on dog IgG (dog IgG): only showed activity against horse and guinea pig IgG; also recorded: no visible effect
Number and position of hydrolytic sites [2]: only a single hydrolytic site was detected
Number and position of hydrolytic sites ([2]; listed as IdeSork2.0): only observed at a single site in the hinge region
NaCl optimum (IgG): 0 mM
NaCl tolerated without a significant drop in activity (IgG): up to 200 mM
Requirement for co-factors or reducing agents (IgG): no requirement for co-factors or reducing agents
pH in which highly active (IgG): 7.0-8.5
pH optimum (IgG): 7.5
Effect of temperature on activity (IgG; 37° C. versus room temperature): improved when incubated at 37 °C as compared to room temperature
NaCl range (IgG; >90% activity): 0 to 200 mM
pH range (IgG; >90% activity): 6.5-8.5
General protease activity (signal) (casein): no signs of general protease activity
General protease activity (signal) (casein; listed as IdeSork 2.0): did not give any measurable signal
